Like-named read-outs stand apart in the source and are kept apart here.
B1: AbTir^full-length (amino acid 1-269) (natural protein, Acinetobacter, UniProt A0A009IHW8 1-269, looked up)
chain: MSLEQKKGADIISKILQIQNSIGKTTSPSTLKTKLSEISRKEQENARIQSKLSDLQKKKIDIDNKLLKEKQNLIKEEILERKKLEVLTKKQQKDEIEHQKKLKREIDAIKASTQYITDVSISSYNNTIPETEPEYDLFISHASEDKEDFVRPLAETLQQLGVNVWYDEFTLKVGDSLRQKIDSGLRNSKYGTVVLSTDFIKKDWTNYELDGLVAREMNGHKMILPIWHKITKNDVLDYSPNLADKVALNTSVNSIEEIAHQLADVILNR
B2: AbThsA (Acinetobacter baumannii ThsA) (enzyme, UniProt P0DW59 1-482, looked up)
chain: MFEHEQKIMIDRIVKELEENNFAIFAGAGLSAPAGYVNWKELLRPLSIELNLDIDKETDLVSLAQYYVNENHGRNRLTERLIDEVGVAREPTPNHKILAKLPISTYWTTNYDDLIEKALDNEGKIADKKFTKNHLSQTKKGRSAVVYKMHGDASLPDQAIITKDQYESYPLHFAPFVTALSGDLVSKTFLFLGFSFNDPNLDYILSRIRIHFEQNQRQHYCIFRKVNRADYSNDEDFSYNLLKQQFVIKDLARFSIKVVLIDAWNDLTRILEEITKRFRCKNVFLSGSAHEFGSWGQTATELFLSKLGEVLIQEGFKITSGLGLGIGNAFISGAIKEIYNRKYTKIDDYLTMKVFPQFVADPTERKNIWTAWRKDLLSQTGIALFFMGNKIIKDPESGKQTIVLADGMDEEFHIAHELGLKLIPIGASGYKAKELFNQIISDFDHYYPNSSPKFREAFEKLNEEVDEPVKLLSKIHDVIKLI
B3: BcThsA, full-length (Bacillus cereus MSX-D12 Thoeris ThsA) (enzyme, Bacilus cereus MSX-D12, UniProt J8G6Z1 1-476, looked up)
chain: MKMNPIVELFIKDFTKEVMEENAAIFAGAGLSMSVGYVSWAKLLEPIAQEIGLDVNKENDLVSLAQYYCNENQGNRGRINQIILDEFSRKVDLTENHKILARLPIHTYWTTNYDRLIEKALEEENKIADVKYTVKQLATTKVKRDAVVYKMHGDVEHPSEAVLIKDDYEKYSIKMDPYIKALSGDLVSKTFLFVGFSFTDPNLDYILSRVRSAYERDQRRHYCLIKKEERRPDELEADFEYRVRKQELFISDLSRFNIKTIVLNNYNEITEILQRIENNIKTKTVFLSGSAVEYNHWETEHAEQFIHQLSKELIRKDFNIVSGFGLGVGSFVINGVLEELYMNQGTIDDDRLILRPFPQGKKGEEQWDKYRRDMITRTGVSIFLYGNKIDKGQVVKAKGVQSEFNISFEQNNYVVPVGATGYIAKDLWNKVNEEFETYYPGADARMKKLFGELNNEALSIEELINTIIEFVEILSN
B4: EfThsA (Enterococcus faecium ThsA) (enzyme, UniProt P0DW60 1-478, looked up)
chain: MDKKVLIKRFSEAIEKGNAAIFAGAGLSMSQGYVSWPELLNDPATEIGLDSKKETDLVTLAQYYKNENGGSRGILNQILMDNFGEELEISENHRILASLPIETYWTTNYDHLIEKSIREAYKNPQVKKNYTQLATTNPNVDTIVYKMHGDIDDVSSTVITRDDYEKYDDDSYALFKETLKGDLLTKTFLFLGFSFTDPNLERILSDIRWVLRENQRPHYCIMRKILKENFVDSEDFFDQERYNYELTKRRLQINDLSRFSINVVEVDDYSEITDILKSIRKKYLRKTIFISGSAVDYTPFTSESKGLKFVEKLAYRLSESGYRIVSGYGLGIGNSIVSGVLKQRRNLRKNNIQDVLSLRPLPLDMPHEWRRYRENIIAESGISIFVFGNKLESGEIVTADGMIEEFELSVQNENIVVPIGFTKGASKVLFDKIQENFSDYFDDSLKSKFQALEKLDTEGEVDKKVEQIVSLINSIQED
B5: SeThsA (Streptococcus equi ThsA) (enzyme)
chain: MFIIKGEVSRKDLIREIEKAIKSDELGAFIGAGLSIPAGFCSWKELLREPAEEIGLDVEKESDLVNLAQYYSNSKKRTSIDDLIKGQFSQLVKPTENHKLLSQLPISTFWTTNYDKLIEKALENNMKKPYVKTKDEQLRGTNHNFDAIVYKLHGDVETPEDAVITRSDYEEFGYNKRKLFREVLEGDLLTKTFLFLGFSFEDPNFNYVIGRLRVLLDEKNTRKHYCIMKRVQDADEDYEYKKARQELQIEDLNRYGIFTYLVNKYDEITEILSTLVDRFRRKTIFISGSAYSYSAYSQKTGENFIHKLSFELSKNGYHIVNGYGKGVGEFVLNGVADYCLTHKSKINDFLTLMPFPQNSSLGIDLDKLYKENREQMIESCGIAIFLFGNKEAEDIASGVMDEYELSKKHGLVCLPIEYTGGASKEIYDQTTQEISDKNTISAIEQANKQCDGDIDMSVKNIVQAVKILNKEEF
B6: SeThsA^SIR2 (residues 1-283) (domain or fragment, Streptococcus equi, UniProt C0MAL8 1-283, looked up)
chain: MFIIKGEVSRKDLIREIEKAIKSDELGAFIGAGLSIPAGFCSWKELLREPAEEIGLDVEKESDLVNLAQYYSNSKKRTSIDDLIKGQFSQLVKPTENHKLLSQLPISTFWTTNYDKLIEKALENNMKKPYVKTKDEQLRGTNHNFDAIVYKLHGDVETPEDAVITRSDYEEFGYNKRKLFREVLEGDLLTKTFLFLGFSFEDPNFNYVIGRLRVLLDEKNTRKHYCIMKRVQDADEDYEYKKARQELQIEDLNRYGIFTYLVNKYDEITEILSTLVDRFRRKT
B7: AbTir^TIR (amino acid 134-267) (domain or fragment, Acinetobacter, UniProt A0A009IHW8 134-267, looked up)
chain: EYDLFISHASEDKEDFVRPLAETLQQLGVNVWYDEFTLKVGDSLRQKIDSGLRNSKYGTVVLSTDFIKKDWTNYELDGLVAREMNGHKMILPIWHKITKNDVLDYSPNLADKVALNTSVNSIEEIAHQLADVIL
B8: AbTir^CC (amino acid 27-118) (domain or fragment, Acinetobacter, UniProt A0A009IHW8 27-118, looked up)
chain: SPSTLKTKLSEISRKEQENARIQSKLSDLQKKKIDIDNKLLKEKQNLIKEEILERKKLEVLTKKQQKDEIEHQKKLKREIDAIKASTQYITD
B9: BtTir^TIR (residues 156-287) (domain or fragment, Bacteroides thetaiotaomicron, UniProt A0A0P0FGV9 156-287, looked up)
chain: QYDFFISHASEDKDDIVRDLAEALRNNGFEVWYDEFELKIGDSLRKKIDYGLSNANYGIVIISPSFVKKNWTEYELNGMVAREMNGHKVILPIWHKITKDEVLRFSPSLADKLALNTSIHTIDDIVENLKNL
B10: BcThsA^SLOG (284-476) (domain or fragment, Bacilus cereus MSX-D12, UniProt J8G6Z1 284-476, looked up)
chain: TVFLSGSAVEYNHWETEHAEQFIHQLSKELIRKDFNIVSGFGLGVGSFVINGVLEELYMNQGTIDDDRLILRPFPQGKKGEEQWDKYRRDMITRTGVSIFLYGNKIDKGQVVKAKGVQSEFNISFEQNNYVVPVGATGYIAKDLWNKVNEEFETYYPGADARMKKLFGELNNEALSIEELINTIIEFVEILSN

Experiments:
SEC-MALS [1] = target: the molecule itself; assay: SEC-MALS
SEC-MALS [2] = target: the molecule itself; assay: SEC-MALS; remark: listed apart in the source
crystal structure = target: the molecule itself; assay: crystal structure

| Protein | stoichiometry N (SEC-MALS [2]) | further results |
| --- | --- | --- |
| B1 | – | stoichiometry N (SEC-MALS [1]): 2 |
| B2 | 4 | – |
| B3 | 4 | – |
| B4 | 4 | – |
| B5 | 4 | – |
| B6 | 2 | – |
| B7 | – | binding result (SEC-MALS [1]): binds |
| B8 | – | binding result (SEC-MALS [1]): binds |
| B9 | – | binding result (crystal structure): binds |
| B10 | 2 | – |

From article doi:10.1101/2022.05.07.491051 (bioRxiv, 2022)
